Laboratory results: patent US20210188972A1 (A AND G PHARMACEUTICAL, published 2021)

T1: Human PTGFRN-ECD (extracellular domain; amino-acid 26 to amino-acid Y at 832), His-tag protein (human, UniProt Q9P2B2 26-832)
T1 construct: range 26-832; Expressed in Hek-293 cells, purified on a nickel column; also called recombinant PTGFRN; not shown: His-tag
T1 sequence (looked up): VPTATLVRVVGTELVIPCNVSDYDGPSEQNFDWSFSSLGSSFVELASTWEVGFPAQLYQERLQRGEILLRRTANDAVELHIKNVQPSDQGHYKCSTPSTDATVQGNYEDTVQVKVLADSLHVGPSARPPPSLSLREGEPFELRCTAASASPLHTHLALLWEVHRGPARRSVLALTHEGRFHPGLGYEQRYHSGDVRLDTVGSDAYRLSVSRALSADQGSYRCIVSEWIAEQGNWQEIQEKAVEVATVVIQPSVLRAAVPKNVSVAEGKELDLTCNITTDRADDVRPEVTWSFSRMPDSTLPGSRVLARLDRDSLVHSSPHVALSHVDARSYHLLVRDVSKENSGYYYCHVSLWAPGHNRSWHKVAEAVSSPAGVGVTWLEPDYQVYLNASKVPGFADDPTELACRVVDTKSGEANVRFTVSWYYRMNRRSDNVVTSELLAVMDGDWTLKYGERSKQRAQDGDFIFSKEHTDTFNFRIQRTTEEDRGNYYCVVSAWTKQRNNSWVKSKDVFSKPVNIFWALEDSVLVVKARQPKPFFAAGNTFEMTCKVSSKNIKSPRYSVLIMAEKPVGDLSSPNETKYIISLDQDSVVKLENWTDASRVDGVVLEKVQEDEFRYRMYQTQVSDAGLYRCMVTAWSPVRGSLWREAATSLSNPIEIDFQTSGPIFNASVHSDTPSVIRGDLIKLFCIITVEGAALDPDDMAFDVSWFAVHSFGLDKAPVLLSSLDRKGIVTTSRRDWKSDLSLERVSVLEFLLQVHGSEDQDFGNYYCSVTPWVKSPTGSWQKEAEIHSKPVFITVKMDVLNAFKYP


Experiments:
[1] = target: T1, Human PTGFRN-ECD (extracellular domain; …); test: Octet Red96 pairing (binning matrix) on PTGFRN-ECD; capture Ab (1st loading Ab): 9D8
[2] = target: T1, Human PTGFRN-ECD (extracellular domain; …); test: Octet Red96 pairing (binning matrix) on PTGFRN-ECD; capture Ab (1st loading Ab): 10E6
[3] = target: T1, Human PTGFRN-ECD (extracellular domain; …); test: BLI, Octet Red96, mAb on AMC sensor, PTGFRN-ECD 100 nM as analyte
Experimental: Antibody scouting/affinity based antibody ranking was performed to determine on/off rates and KD ranking of selected anti-PTGFRN mAbs using AMC sensor on forteBio Octet Red96 (FortéBio, Menlo Park, Calif.). PTGFRN-ECD, 100 nM, was used as the analyte.

[4] = target: T1, Human PTGFRN-ECD (extracellular domain; …); test: Octet Red96 pairing (binning matrix) on PTGFRN-ECD; capture Ab (1st loading Ab): 1E2
[5] = target: T1, Human PTGFRN-ECD (extracellular domain; …); test: Octet Red96 pairing (binning matrix) on PTGFRN-ECD; capture Ab (1st loading Ab): 4F4
[6] = target: T1, Human PTGFRN-ECD (extracellular domain; …); test: Octet Red96 pairing (binning matrix) on PTGFRN-ECD; capture Ab (1st loading Ab): 9A9
[7] = target: T1, Human PTGFRN-ECD (extracellular domain; …); test: Octet Red96 pairing (binning matrix) on PTGFRN-ECD; capture Ab (1st loading Ab): 10D9
[8] = target: T1, Human PTGFRN-ECD (extracellular domain; …); test: Octet Red96 pairing (binning matrix) on PTGFRN-ECD; capture Ab (1st loading Ab): 2B12
[9] = target: T1, Human PTGFRN-ECD (extracellular domain; …); test: Octet Red96 pairing (binning matrix) on PTGFRN-ECD; capture Ab (1st loading Ab): 7B4
[10] = target: T1, Human PTGFRN-ECD (extracellular domain; …); test: Octet Red96 pairing (binning matrix) on PTGFRN-ECD; capture Ab (1st loading Ab): 33B7
[11] = target: T1, Human PTGFRN-ECD (extracellular domain; …); test: Octet Red96 pairing (binning matrix) on PTGFRN-ECD; capture Ab (1st loading Ab): 9G8
[12] = target: T1, Human PTGFRN-ECD (extracellular domain; …); test: Octet Red96 pairing (binning matrix) on PTGFRN-ECD; capture Ab (1st loading Ab): 6F6

Binder | Octet pairing response [1] | Octet pairing response [2] | Kd [3] [pM] | Response [3] | koff [3] [s⁻¹] | kon [3] [M⁻¹ s⁻¹] | Octet pairing response [4] | Octet pairing response [5] | Octet pairing response [6] | Octet pairing response [7] | Octet pairing response [8] | Octet pairing response [9] | Octet pairing response [10] | Octet pairing response [11] | Octet pairing response [12]
6F6 (antibody, V domains shown, Mouse hybridoma mAb) VH: QVQLQQSGAELVKPGASVKVSCKASGYTFTTYWMHWVKQRPGQGLEWIGRIHPSDSDTNYNQKFKGKATLTLDKSSSTAYMQLSSLTSEDSAVYYCAMSLYYTMDYWGQGTSVTVSS VL: DIQMTQSPSSLSASLGGKVTITCKASQDIKKYIAWYQHKPGKGPRLLIHYTSTLQPGIPSRFSGSGSGRDYSFSISNLEPEDIATYYCLQYDNLLYTFGGGTKLEIK | 0.165 | 0.255 | < 1 | 0.335 | < 1e-07 | 69100 | 0.232 | 0.131 | 0.222 | 0.191 | 0.124 | 0.103 | 0.126 | 0.146 | –
9A9 (antibody, V domains shown, Mouse hybridoma mAb) VH: QVQLQQSGPELVKPGASVKLSCKASGYTFTTYDINWVKQRPGQGLEWIGWLYPRDGNTNYNEKFKGKASLTVDTSSSTAYMELHSLTSEDSAVYFCARDYYGSTYGYFDYWGQGTTLTVSS VL: DIQMTQSPASLSASVGGTVTITCRASEKIYSYLAWYQQKQGKSPQLLVYDANTLAQGVPSRFSGSGSGTQFSLKINSLQPEDFGSYYCQHHYVTPLTFGAGTKLALK | – | – | < 1 | 0.319 | < 1e-07 | 151000 | – | – | – | – | – | 0.162 | – | – | –
10D9 (antibody, V domains shown, Mouse hybridoma mAb) VH: DVQLQESGPGLVKPSQSLSLTCSVTGCSITSGYDWNWIRQFPGNKLEWMGYINYDGNSNYIPSLKNRVSITRDTSKNQFFLKLNSVTTEDTATYYCARSDGYYWYFDVWGTGTTVTVSS VL: DIKMTQSPSSMYASLGERVTITCKASQDIKSYLSWYQQKPWKSPKTLIYYATSLADGVPSRFSASGSGQDYSLTISSLESDDTATYYCLQHAERPLTFGAGTKLELK | 0.186 | 0.329 | < 1 | 0.342 | < 1e-07 | 85600 | 0.269 | – | 0.226 | – | 0.18 | 0.1 | 0.236 | 0.142 | 0.215
1E2 (antibody, V domains shown, Mouse hybridoma mAb) VH: DVQLQESGPGLVKPSQSLSLTCSVTDYSITSGYYWNWIRQFPGNKLEWMGYISYDGSNNYNPSLKNRLSITRDTSKNQFFLKLNSVTPEDTATYYCARGWDYCFDYWGQGATLTVSS VL: DIQMTQTTSSLSASLGDRVTISCSASQGISNYLNWYQQKPDGTVKLLIYYTSGLHSGVPSRFSGSGSGTDYSLTISNLEPEDIATYYCQQYSQLPWTFGGGTKLEIK | 0.184 | 0.306 | < 1 | 0.41 | < 1e-07 | 63800 | – | – | 0.27 | 0.24 | 0.23 | 0.157 | 0.185 | 0.215 | –
2B12 (antibody, V domains shown, Mouse hybridoma mAb) VH: QVQLQQPGAELVKPGASVKMSCKASGYTFTSYWITWVKQGPGQGLEWIGDIYPGSGNTNYNEKFKSKATLTVDTSSSTAYMQLSSLTSEDSAVYYCARFFILTSYYFDYWGQGTTLTVSS VL: GIVMTQSQKFMSTTVGDRVSITCKASQNVGTAVAWFQQKPGQSPKLLIYLASNRYTGVPDRFTGSGSGTDFTLTISNMQSEDLADYFCQQYSNYPLTFGAGTKLELK | 0.0857 | 0.157 | < 1 | 0.272 | < 1e-07 | 48500 | 0.27 | – | 0.0744 | 0.111 | – | 0.0818 | 0.132 | 0.0926 | 0.13
3E10 (antibody, V domains shown) VH: EVHLVESGGDLVKPGGSLKLSCAASGFTFSSYGMSWVRQTPDKRLEWVASISSGGSHTYYPDRVKGRFTISRDNAKNTLYLQMSSLKSEDTAMYYCARHPSYYGSSLYCFDYWGQGTTLTVSS VL: DIQMTQTTSSLSASLGDRVTISCRASQDISNYLNWYQQKPDGTVKLLIYYTSRLHSGVPSRFSGSGSGTDFSLTISNLEQEDVATYFCQQGSTLPWTFGGGTKLEIK | 0.199 | 0.305 | < 1 | 0.472 | < 1e-07 | 120000 | – | 0.112 | 0.224 | 0.219 | 0.251 | 0.12 | 0.252 | 0.124 | 0.0759
33B7 (antibody, V domains shown, Murine hybridoma monoclonal IgG (ATCC PTA-124281); also called AG02; AGO2) VH: DVQLQESGPGLVKPSQSLSLTCSVTGCSITSGYYWNWIRQFPGNKLEWMGYISHDGNNNYSPSLKNRISITRDTSKNQFFLKLNSVTTEDTATYYCARGFYYYGYFGYWGQGTTLTVSS VL: DIVMSQSPSSLAVSVGEKVTMSCKSSQSLLYSTNQKNYLAWYQQKPGQSPKPLIYWASTRESGVPDRFTGSGSGTDFTLTISSVKAEDLAVYYCQQYYSYRTFGGGTKLEIKR | – | – | 3090 | 0.245 | 0.000602 | 195000 | – | 0.125 | – | – | – | – | – | – | –
